Substrate: C/C(=C\CNc1ncnc2[nH]cnc12)CO
Assay: purified protein
Conditions: FAD

B1: ZmCKX1 (cytokinin oxidase/dehydrogenase) (Zea mays) (protein)
chain: LAAGTPALGDDRGRPWPASLAALALDGKLRTDSNATAAASTDFGNITSALPAAVLYPSSTGDLVALLSAANSTPGWPYTIAFRGRGHSLMGQAFAPGGVVVNMASLGDAAAPPRINVSADGRYVDAGGEQVWIDVLRASLARGVAPRSWNDYLYLTVGGTLSNAGISGQAFRHGPQISNVLEMDVITGHGEMVTCSKQLNADLFDAVLGGLGQFGVITRARIAVEPAPARARWVRFVYTDFAAFSADQERLTAPRPGGGGASFGPMSYVEGSVFVNQSLATDLANTGFFTDADVARIVALAGERNATTVYSIEATLNYDNATAAAAAVDQELASVLGTLSYVEGFAFQRDVAYAAFLDRVHGEEVALNKLGLWRVPHPWLNMFVPRSRIADFDRGVFKGILQGTDIVGPLIVYPLNKSMWDDGMSAATPSEDVFYAVSLLFSSVAPNDLARLQEQNRRILRFCDLAGIQYKTYLARHTDRSDWVRHFGAAKWNRFVEMKNKYDPKRLLSPGQDIFN
Km: 6.8 ± 1.3 µM
